Target: T1, AtWRKY40 DBD (Arabidopsis thaliana, UniProt Q9SAH7 131-207)
T1 sequence: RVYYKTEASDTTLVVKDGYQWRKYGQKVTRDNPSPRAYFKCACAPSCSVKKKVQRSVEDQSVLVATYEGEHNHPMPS
Assay: BLI; steady state; BLI (Octet RED96e, SA sensors): 50 mM Hepes pH 7, 150 mM NaCl, 0.05% Tween20, 25 C, 1000 rpm; duplex loaded at 40 nM, protein 0.25-10 uM
Conditions: protein: recombinant; tags: N-terminal 6xHis (pET28a); label: biotin on forward strand (printed at 5' end); blunt

B1: RLP43 W-box, unmethylated (dsDNA)
DNA 1: CGTAGGGTCAAGCTGT
DNA 2: ACAGCTTGACCCTACG
For B1, the Kd was 0.63 µM.

B2: RLP43 W-box 5mC4 (dsDNA)
DNA 1: CGTAGGGTCAAGCTGT
DNA 2: ACAGCTTGACCCTACG
modifications: 5-methyl-dC at forward strand position 9 (W-box C4)
For B2, the Kd was 12 µM.

B3: RLP43 W-box 5mC4 + 5mC1 5mC2 (dsDNA)
DNA 1: CGTAGGGTCAAGCTGT
DNA 2: ACAGCTTGACCCTACG
modifications: 5-methyl-dC at forward position 9 (C4) and reverse positions 10 and 11 (C2, C1)
In the case of B3, the Kd is reported as 9.2 µM.
